Patent publication US20220143094A1 (Chugai, published 2022)

B2: H0000-SG115/GL4-k0a (antibody)
heavy: QVQLVQSGAEVKKPGASVKVSCKASGYTFTDYEMHWIRQPPGQGLEWIGAIDPKTGDTAYSQKFKGRVTLTADKSTSTAYMELSSLTSEDTAVYYCTRFYSYTYWGQGTLVTVSSASTKGPSVFPLAPSSKSTSGGTAALGCLVKDYFPEPVTVSWNSGALTSGVHTFPAVLQSSGLYSLSSVVTVPSSSLGTQTYICNVNHKPSNTKVDKKVEPKSCDKTHTCPPCPAPELRRGPKVFLFPPKPKDTLMISRTPEVTCVVVDVSHEDPEVKFNWYVDGVEVHNAKTKPREEQYNSTYRVVSVLTVLHQDWLNGKEYKCKVSNKGLPSSIEKTISKAKGQPREPQVYTLPPSREEMTKNQVSLTCLVKGFYPSDIAVEWESNGQPENNYKTTPPVLDSDGSFFLYSKLTVDKSRWQQGNVFSCSVLHEALHAHYTRKELSLSP
light: DIVMTQSPLSLPVTPGEPASISCRSSQSLVHSNRNTYLHWYQQKPGQAPRLLIYKVSNRFSGVPDRFSGSGSGTDFTLKISRVEAEDVGVYYCSQNTHVPPTFGQGTKLEIKRTVAAPSVFIFPPSDEQLKSGTASVVCLLNNFYPREAKVQWKVDNALQSGNSQESVTEQDSKDSTYSLSSTLTLSKADYEKHKVYACEVTHQGLSSPVTKSFNRGEC
notes: Anti-GPC3 antibody with the SG115 constant region, which is both silent Fc and delta GK-Fc; also called anti-GPC3 silent Fc antibody; anti-GPC3 silent Fc and anti-delta GK-Fc antibody
B3: H0000-G1T3GK/GL4-k0a (antibody, human IgG1, kappa)
heavy: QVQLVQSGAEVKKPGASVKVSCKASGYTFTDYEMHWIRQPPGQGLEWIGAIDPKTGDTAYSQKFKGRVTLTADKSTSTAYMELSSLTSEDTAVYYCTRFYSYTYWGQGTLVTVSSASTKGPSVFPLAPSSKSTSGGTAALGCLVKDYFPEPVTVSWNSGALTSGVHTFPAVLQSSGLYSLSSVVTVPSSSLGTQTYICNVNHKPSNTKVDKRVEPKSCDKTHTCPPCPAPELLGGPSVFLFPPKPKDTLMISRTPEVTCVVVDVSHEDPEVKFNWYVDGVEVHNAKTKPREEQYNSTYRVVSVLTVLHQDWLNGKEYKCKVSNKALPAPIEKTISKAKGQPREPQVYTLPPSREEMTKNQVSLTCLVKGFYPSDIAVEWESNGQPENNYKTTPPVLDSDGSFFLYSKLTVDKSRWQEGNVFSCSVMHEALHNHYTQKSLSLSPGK
light: DIVMTQSPLSLPVTPGEPASISCRSSQSLVHSNRNTYLHWYQQKPGQAPRLLIYKVSNRFSGVPDRFSGSGSGTDFTLKISRVEAEDVGVYYCSQNTHVPPTFGQGTKLEIKRTVAAPSVFIFPPSDEQLKSGTASVVCLLNNFYPREAKVQWKVDNALQSGNSQESVTEQDSKDSTYSLSSTLTLSKADYEKHKVYACEVTHQGLSSPVTKSFNRGEC
notes: Control antigen antibody with the same variable regions as m1 and a human IgG1 constant region carrying C-terminal GK; also called anti-GPC3 antibody with C-terminal addition of Gly-Lys; anti-GPC3 antibody having IgG1 constant region having C-terminal GK

Assays:
H0000-SG115/GL4-k0a = target: B2; test: SPR (Biacore T200), multi-cycle kinetics; anti-GPC3 antibody captured on engineered GPC3 CM4 chip, bispecific antibody as analyte at 15.6-1000 nM
H0000-G1T3GK/GL4-k0a = target: B3; test: as above
engineered GPC3 = engineered GPC3 (Homo sapiens (Human), UniProt P51654 25-563); test: SPR (Biacore T200); capture of the antibody on an engineered GPC3 CM4 chip
Chain of engineered GPC3 (P51654 other isoform, or with tags, fused parts or gaps limits assumed): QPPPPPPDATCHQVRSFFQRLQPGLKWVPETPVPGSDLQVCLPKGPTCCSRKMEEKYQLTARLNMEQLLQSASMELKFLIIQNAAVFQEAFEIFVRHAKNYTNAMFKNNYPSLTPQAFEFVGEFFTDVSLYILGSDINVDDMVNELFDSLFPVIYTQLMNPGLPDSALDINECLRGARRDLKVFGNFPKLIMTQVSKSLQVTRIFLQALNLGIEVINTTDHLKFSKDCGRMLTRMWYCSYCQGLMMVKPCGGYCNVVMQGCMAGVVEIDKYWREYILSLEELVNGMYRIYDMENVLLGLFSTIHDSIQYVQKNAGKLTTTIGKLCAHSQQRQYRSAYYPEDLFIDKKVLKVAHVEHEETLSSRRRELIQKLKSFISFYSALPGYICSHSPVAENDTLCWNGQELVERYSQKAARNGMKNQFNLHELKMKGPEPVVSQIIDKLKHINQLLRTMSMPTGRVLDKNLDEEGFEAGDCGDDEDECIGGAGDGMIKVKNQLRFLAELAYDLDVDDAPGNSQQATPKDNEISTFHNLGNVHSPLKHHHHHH

B1: SKA0009H-F760mnN17/SKA0009Ls-k0MT//TR01H113-F760mnP17/L0011-k0a (bispecific antibody, human IgG1, kappa, N297A)
heavy 1: QSVEESGGRLVTPGTSLTLTCTVSGIDLSSYGMGWVRQAPGMGLEYIGIIYAAGRTYYASWVKGRFIISKTSTTVDLEMTSLTTEDTATYFCARHGSWYAGMDLWGPGTLVTVSSASTKGPSVFPLAPSSKSTSGGTAALGCLVKDYFPEPVTVSWNSGALTSGVHTFPAVLQSSGLYSLSSVVTVPSSSLGTQTYICNVNHKPSNTKVDKKVEPKSCDKTHTCPPCPAPELRGGPKVFLFPPKPKDTLMISRTPEVTCVVVDVSHEDPEVKFNWYVDGVEVHNAKTKPREEQYASTYRVVSVLTVLHQDWLNGKEYKCKVSNKALPAPIEKTISKAKGQPREPQVYTLPPSREEMTKNQVSLTCLVKGFYPSDIAVEWESNGQPENNYKTTPPYLDSDGSFFLYSKLTVDKSRWQQGNVFSCSVMHEALHNHYTQESLSLSP
light 1: AIEMTQTPSPVSAAVGGTVSINCQASEDIENYFAWYQQKPGQPPKLLIYDASELASGVPSRFSGSGSGTDFTLTISGVQSDDAATYYCQHADYAASSENTFGGGTEVVVKRTVAAPSVFIFPPSDEQLKSGTASVVCLLNNFYPREAKVQWKVDNALQSGNSQESVTEQDSKDSTYSLSSTLTLSKADYEKHKVYACEVTHQGLSSPVTKSFNRGEC
heavy 2: QVQLVESGGGVVQPGGSLRLSCAASGFTFSNAWMHWVRQAPGKGLEWVAQIKDKSQNYATYVAESVKGRFTISRADSKNSIYLQMNSLKTEDTAVYYCRYVHYAAGYGVDIWGQGTTVTVSSASTKGPSVFPLAPSSKSTSGGTAALGCLVKDYFPEPVTVSWNSGALTSGVHTFPAVLQSSGLYSLSSVVTVPSSSLGTQTYICNVNHKPSNTKVDKKVEPKSCDKTHTCPPCPAPELRGGPKVFLFPPKPKDTLMISRTPEVTCVVVDVSHEDPEVKFNWYVDGVEVHNAKTKPREEQYASTYRVVSVLTVLHQDWLNGKEYKCKVSNKALPAPIEKTISKAKGQPREPQVYTLPPSRKEMTKNQVSLTCLVKGFYPSDIAVEWESNGQPENNYKTTPPYLDSDGSFFLYSKLTVDKSRWQQGNVFSCSVMHEALHNHYTQKSLSLSP
light 2: DIVMTQSPLSLPVTPGEPASISCRSSQPLVHSNRNTYLHWYQQKPGQAPRLLIYKVSNRFSGVPDRFSGSGSGTDFTLKISRVEAEDVGVYYCGQGTQVPYTFGQGTKLEIKRTVAAPSVFIFPPSDEQLKSGTASVVCLLNNFYPREAKVQWKVDNALQSGNSQESVTEQDSKDSTYSLSSTLTLSKADYEKHKVYACEVTHQGLSSPVTKSFNRGEC
notes: Bispecific IgG made by mixing two homomers under 2-MEA reduction; also called anti-silent Fc antibody; silent Fc×CD3
With B1 the Kd (H0000-SG115/GL4-k0a) was under 0.26 nM, the koff (H0000-SG115/GL4-k0a) was under 1e-05 s⁻¹ and the kon (H0000-SG115/GL4-k0a) was 38900 M⁻¹ s⁻¹. It also gave a kon (H0000-G1T3GK/GL4-k0a) of 2610 M⁻¹ s⁻¹.

B2: binds (engineered GPC3).

B3: binds (engineered GPC3).

B4: YG55H-F760mnN17GK/YG55L-k0//TR01H113-F760mnP17GK/L0011-k0a (bispecific antibody, human IgG1, kappa, N297A)
heavy 1: QSLEESGGRLVTPGGSLTLTCTVSGIDLSNYAVGWVRQAPGKGLEYIGIIYASGSAYYASWAKGRFTISKTSSTTVDLKVTSLTTEDTATYFCARGYGRAFRIWGPGTLVTVSSASTKGPSVFPLAPSSKSTSGGTAALGCLVKDYFPEPVTVSWNSGALTSGVHTFPAVLQSSGLYSLSSVVTVPSSSLGTQTYICNVNHKPSNTKVDKKVEPKSCDKTHTCPPCPAPELRGGPKVFLFPPKPKDTLMISRTPEVTCVVVDVSHEDPEVKFNWYVDGVEVHNAKTKPREEQYASTYRVVSVLTVLHQDWLNGKEYKCKVSNKALPAPIEKTISKAKGQPREPQVYTLPPSREEMTKNQVSLTCLVKGFYPSDIAVEWESNGQPENNYKTTPPYLDSDGSFFLYSKLTVDKSRWQQGNVFSCSVMHEALHNHYTQESLSLSPGK
light 1: AVLTQTPSPVSAAVGGTVTISCQASQSVYNNNFLSWYQQKPGQRPKLLIYDASTLESGVPSRFSGSGSGTQFTLTISSVQCDDAATYYCLGGYDDHDNAFGGGTEVVVKRTVAAPSVFIFPPSDEQLKSGTASVVCLLNNFYPREAKVQWKVDNALQSGNSQESVTEQDSKDSTYSLSSTLTLSKADYEKHKVYACEVTHQGLSSPVTKSFNRGEC
heavy 2: QVQLVESGGGVVQPGGSLRLSCAASGFTFSNAWMHWVRQAPGKGLEWVAQIKDKSQNYATYVAESVKGRFTISRADSKNSIYLQMNSLKTEDTAVYYCRYVHYAAGYGVDIWGQGTTVTVSSASTKGPSVFPLAPSSKSTSGGTAALGCLVKDYFPEPVTVSWNSGALTSGVHTFPAVLQSSGLYSLSSVVTVPSSSLGTQTYICNVNHKPSNTKVDKKVEPKSCDKTHTCPPCPAPELRGGPKVFLFPPKPKDTLMISRTPEVTCVVVDVSHEDPEVKFNWYVDGVEVHNAKTKPREEQYASTYRVVSVLTVLHQDWLNGKEYKCKVSNKALPAPIEKTISKAKGQPREPQVYTLPPSRKEMTKNQVSLTCLVKGFYPSDIAVEWESNGQPENNYKTTPPYLDSDGSFFLYSKLTVDKSRWQQGNVFSCSVMHEALHNHYTQKSLSLSPGK
light 2: DIVMTQSPLSLPVTPGEPASISCRSSQPLVHSNRNTYLHWYQQKPGQAPRLLIYKVSNRFSGVPDRFSGSGSGTDFTLKISRVEAEDVGVYYCGQGTQVPYTFGQGTKLEIKRTVAAPSVFIFPPSDEQLKSGTASVVCLLNNFYPREAKVQWKVDNALQSGNSQESVTEQDSKDSTYSLSSTLTLSKADYEKHKVYACEVTHQGLSSPVTKSFNRGEC
notes: Bispecific IgG made by mixing two homomers under 2-MEA reduction; also called anti-delta GK-Fc antibody; delta GK-Fc×CD3
Binder B4 has a Kd (H0000-SG115/GL4-k0a) of 41.7 nM, a koff (H0000-SG115/GL4-k0a) of 0.00348 s⁻¹ and a kon (H0000-SG115/GL4-k0a) of 83500 M⁻¹ s⁻¹.
